PMC2217413 (The Journal of General Physiology, 2004)

B1: GST-fusion protein of TRPV1 amino acids 149–222 (domain or fragment)
chain: KDPETGKTCLLKAMLNLHNGQNDTIALLLDVARKTDSLKQFVNASYTDSYYKGQTALHIAIERRNMTLVTLLVE
B2: GST-fusion protein of TRPV1 amino acids 189–250 (domain or fragment)
chain: FVNASYTDSYYKGQTALHIAIERRNMTLVTLLVENGADVQAAANGDFFKKTKGRPGFYFGEL

target: calmodulin immobilized on agarose beads (CaM-agarose) (UniProt P62157 1-149); assay: pull-down

Binding result, binds:
FVNASYTDSYYKGQTALHIAIERRNMTLVTLLVE (domain or fragment) [GST-fusion protein of TRPV1 amino acids 189–222]
B1
B2
